Experiments:
[1] = biological target: T1, HLA-DR molecule DRB1*0401 (human); experiment: peptide displayed on HLA-DR tetramer, ex vivo staining of PBMCs
T1 construct: Used as a PE-conjugated peptide/MHCII tetramer assembled by a cited method
From the text: Biologically relevant pMHCII complexes were identified by tetramer-guided epitope mapping (TGEM). This involved 2 steps: First, PBMC cultures established from subjects with known HLA-DR types were stimulated with RV peptide pools derived from VP1, VP2, or VP4, and then stained with pMHCII tetramer pools composed of HLA-DR molecules corresponding to those expressed in the test subject; Second, positive signals were de-convoluted by repeating and staining with single-peptide tetramers.
All experiments were performed in subjects expressing HLA-DR molecules corresponding to the selected tetramer. Precursor frequencies of circulating tetramer+ cells were then calculated by established methods [43]. Tetramer+ cells were phenotyped for surface markers by staining PBMCs with PE-conjugated tetramers, labeling with anti-PE magnetic beads, enriching with an AutoMACS separator (Miltenyi Biotec, Auburn, Calif., USA), and then counterstaining for surface markers. […] For simplicity, identified RV-A16 peptide epitopes were given a numerical designation.

[2] = biological target: T1, HLA-DR molecule DRB1*0401; experiment: peptide displayed on HLA-DR tetramer, ex vivo staining
[3] = biological target: T2, HLA-DR molecule DRB1*0101 (human); experiment: peptide displayed on HLA-DR tetramer (TGEM)
T2 construct: Used as a PE-conjugated peptide/MHCII tetramer assembled by a cited method

[4] = biological target: T3, HLA-DR molecule DRB1*0701 (human); experiment: peptide displayed on HLA-DR tetramer (TGEM)
T3 construct: Used as a PE-conjugated peptide/MHCII tetramer assembled by a cited method

| Binder | binding result [2] | binding result [3] | other results |
| --- | --- | --- | --- |
| NEKQPSDDNWLNFDGTLLGN (20mer from the overlapping RV-A16 VP2 peptide library, loaded on HLA-DR tetramers) [RV-A16 VP2P21 peptide epitope] |  |  | binding result [1]: binds |
| SDDNWLNFDGTLLGNLLIFP (Residues 169-188 of RV-A39 VP2; also called RV-A39 VP2 peptide) [RV-A39 VP2169-188 peptide epitope] | binds |  |  |
| PHQFINLRSNNSATLIVPYV [RV-A16 VP2P24 peptide epitope] |  | binds |  |
| AQVRRKFEMFTYVRFDSEIT [RV-A39 VP1105-124 peptide epitope] | binds |  |  |
| PRFSLPFLSIASAYYMFYDG (20mer from the overlapping RV-A16 VP1 peptide library, loaded on HLA-DR tetramers) [RV-A16 VP1P23 peptide epitope] |  | binds | binding result [4]: binds |
